Experimental data reported in PMC9381478, “A context-dependent and disordered ubiquitin-binding motif” (Cellular and Molecular Life Sciences: CMLS, 2022).

Legend:
[1] = Solubility noted during NMR sample preparation; format: physicochemical; details: NMR buffer; interaction mapped at 30 µM 15N-Spd1
ubiquitin = biological target: T1, ubiquitin (Schizosaccharomyces pombe, UniProt P0CH06); experiment: NMR titration of 15N-ubiquitin (1H-15N HSQC chemical shift perturbations); format: binding, S. pombe; details: ratio of Kd values for ubiquitin
T1 construct: plasmid coding for S. pombe ubiquitin with an N-terminal 6xhistidine-tag, TEV-cleavage site as well as an N-terminal free cysteine; made in house; host or cells: E. coli BL21(DE3)
T1 sequence (P0CH06 1-76 limits assumed): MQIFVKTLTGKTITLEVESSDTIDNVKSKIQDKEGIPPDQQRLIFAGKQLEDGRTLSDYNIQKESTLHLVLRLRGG
Experimental: For interaction of the peptides with ^15N-ubiquitin, the lyophilized peptides were dissolved in MilliQ water and pH adjusted to 7.5. […] For the titrations of ubiquitin with each peptide, except the WT Dss1 peptide, 100 µM ubiquitin in NMR buffer was measured as one end point, and the 1 mM peptide and 100 µM ubiquitin as the other. Then, the peptide sample was titrated into the ubiquitin sample with titration points at 0, 50, 150, 300, 400, 500 and 1000 µM peptide. […] NMR samples were centrifuged 13.000×g for 5 min and transferred to either single-use 5 mm NMR tubes (Bruker) or 3 mm (Shigemi). To prepare NMR samples of ^15 N-labeled ubiquitin with full-length Dss1 and variants, lyophilized proteins were dissolved directly in the NMR buffer. The variants were each dissolved in 510 µL NMR buffer with 100 µM ubiquitin. The concentration of Dss1 in the NMR sample was determined by measuring the absorbance at 280 nm on a ND-1000 NanoDrop spectrophotometer, calibrated with the NMR buffer with 100 µM ubiquitin. The concentration of Dss1 varied between variants, depending on the purification yield. For all titrations, seven points of varying Dss1 concentration were recorded. To prepare NMR samples of ^15N-labeled ubiquitin with Spd1, Spd1 was buffer exchanged to MilliQ using a 3 kDa cut-off Amicon Ultra-0.5 ml centrifugal filter (Merk Millipore), lyophilized and resuspended in NMR buffer with 100 µM ubiquitin. […] For experiments with ubiquitin, 200 µL 1 mM ubiquitin was buffer exchanged to MilliQ water using a 3 kDa cut-off Amicon Ultra-0.5 ml centrifugal filter (Merk Millipore), lyophilized, and subsequently resuspended in 100 µL NMR buffer with 1 mM Dss1 for a final ubiquitin concentration of 2 mM and 1 mM, respectively. All samples were transferred to 3 mm (Shigemi) NMR tubes.
All NMR spectra were recorded on Bruker Avance III HD 600 MHz spectrometer with a Bruker proton-optimized quadruple resonance NMR ‘inverse’ (QCI) cryoprobe, a Bruker Avance III HD 750 MHz spectrometer with a Bruker proton-optimized triple resonance NMR ‘inverse’ (TCI) cryoprobe and a Bruker Avance Neo 800 MHz spectrometer with a Bruker carbon/nitrogen-optimized triple-resonance NMR 'observe' (TXO) cryoprobe. […] All spectra were zero-filled, apodized using cosine bells in all dimensions, Fourier transformed, and the zero-order phase was corrected manually using either nmrDraw, a component of NmrPipe or qMDD if spectra were recorded using non-linear-sampling (NLS). All spectra were analysed using the Analysis software.
The CSPs were fitted to a one-site-binding model using global fit, and the Kd-values are extracted using Eq. 2.2 Δδobs=Δδmax∙Pt+Lt+Kd-Pt+Lt+Kd^2-4Pt∙Lt^1/2/2∙Pt.
Peaks giving rise to large uncertainties in the fit, either due to weak signals or overlap, were removed after a first iteration of fitting, and the fit repeated on the remaining dataset.

Kd of full-length protein lower than for the peptide alone (ubiquitin) | Molecule | solubility [1]
– | Spd1: intrinsically disordered S. pombe protein, sequence printed in b198 (protein, UniProt Q10585 1-124, looked up, full-length) MHSSKRVMTTKTHVEQPESSMRPQLPESIQGSLMDVGMRVRKSISTGYKSKQTTFPAYNPPLYNTVSENIALKNTAFSYEPNGTKRPFEQAIPNYNWANPPQDFEEPEWLKPFDVVMEGTNERL | low solubility
~10 times | full-length Dss1: recombinant full-length S. pombe Dss1 (N71C) (protein, left off: His6-SUMO, N-terminal, cleaved) MSRAALPSLENLEDDDEFEDFATENWPMKDTELDTGDDTLWENNWDDEDIGDDDFSVQLQAELKKKGVAAC | –
